System: Escherichia coli TOP10
Experiment: shrunken log2 fold change of peptide-encoding DNA abundance (4.5 h post-induction vs induction); higher = less antimicrobial activity (less host growth inhibition)
Conditions: time post-induction: 4.5 h; library: site-saturation at positions 5, 18, 19, 20
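Note: peptides expressed intracellularly from a pBAD plasmid library in pooled LB shake-flask culture, induced with 0.3% L-arabinose, DNA abundance read by NGS, three biological replicates, DESeq2 with apeglm shrinkage.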

| Sequence | shrunken log2 fold change |
| --- | --- |
| RRIRFRPPRLPRPRPRPDATPRP | 0.486 |
| RRIRGRPPRLPRPRPRPWFNPRP | -0.18 |
| RRIRVRPPRLPRPRPRPTGGPRP | 0.18 |
| RRIRLRPPRLPRPRPRPQEQPRP | -0.00233 |
| RRIRMRPPRLPRPRPRPCTIPRP | -0.263 |
| RRIRMRPPRLPRPRPRPLITPRP | 0.0495 |
| RRIRQRPPRLPRPRPRPIFFPRP | -0.0319 |
| RRIRFRPPRLPRPRPRPRRTPRP | 0.375 |
| RRIRCRPPRLPRPRPRPVGNPRP | -0.0972 |
| RRIRPRPPRLPRPRPRPYVQPRP | -0.147 |
| RRIRPRPPRLPRPRPRPLWAPRP | 0.343 |
| RRIRTRPPRLPRPRPRPKLYPRP | -0.363 |
| RRIRTRPPRLPRPRPRPVKAPRP | 0.0375 |
| RRIRNRPPRLPRPRPRPWGTPRP | 0.0962 |
| RRIRERPPRLPRPRPRPHHCPRP | -0.0231 |
| RRIRTRPPRLPRPRPRPIMMPRP | -0.267 |
| RRIRYRPPRLPRPRPRPHQRPRP | -0.0288 |
| RRIRLRPPRLPRPRPRPATDPRP | 0.142 |
| RRIRIRPPRLPRPRPRPAYHPRP | -0.639 |
| RRIRRRPPRLPRPRPRPLRIPRP | 0.724 |
| RRIRERPPRLPRPRPRPDPAPRP | 2.64 |
| RRIRIRPPRLPRPRPRPCCCPRP | -0.641 |
| RRIRERPPRLPRPRPRPITNPRP | -0.409 |
| RRIRYRPPRLPRPRPRPHNWPRP | -0.926 |
| RRIRRRPPRLPRPRPRPVDSPRP | 0.127 |

| Sequence | shrunken log2 fold change |
| --- | --- |
| RRIRQRPPRLPRPRPRPSWHPRP | -0.155 |
| RRIRRRPPRLPRPRPRPWTWPRP | -0.008 |
| RRIRGRPPRLPRPRPRPFTIPRP | -0.0307 |
| RRIRRRPPRLPRPRPRPMRHPRP | 1.18 |
| RRIRGRPPRLPRPRPRPDVQPRP | 1.69 |
| RRIRYRPPRLPRPRPRPDMRPRP | -0.00508 |
| RRIRPRPPRLPRPRPRPRTYPRP | -0.196 |
| RRIRDRPPRLPRPRPRPLGIPRP | 0.143 |
| RRIRLRPPRLPRPRPRPLDVPRP | -0.205 |
| RRIRCRPPRLPRPRPRPEMVPRP | -0.0828 |
| RRIRVRPPRLPRPRPRPHDRPRP | 0.068 |
| RRIRWRPPRLPRPRPRPCGPPRP | 0.183 |
| RRIRFRPPRLPRPRPRPYAIPRP | -0.536 |
| RRIRWRPPRLPRPRPRPRGNPRP | 0.423 |
| RRIRGRPPRLPRPRPRPQSFPRP | 0.218 |
| RRIRQRPPRLPRPRPRPECIPRP | -0.269 |
| RRIRDRPPRLPRPRPRPWKEPRP | -0.0075 |
| RRIRARPPRLPRPRPRPAGDPRP | 1.01 |
| RRIRSRPPRLPRPRPRPYYKPRP | -0.892 |
| RRIRCRPPRLPRPRPRPHFTPRP | -0.677 |
| RRIRDRPPRLPRPRPRPLLVPRP | 0.134 |
| RRIRMRPPRLPRPRPRPGTYPRP | -0.163 |
| RRIRDRPPRLPRPRPRPIFFPRP | 0.0831 |
| RRIRQRPPRLPRPRPRPLINPRP | -0.305 |
| RRIRGRPPRLPRPRPRPPPCPRP | 1.16 |

| Sequence | shrunken log2 fold change |
| --- | --- |
| RRIRHRPPRLPRPRPRPDWAPRP | -0.0995 |
| RRIRRRPPRLPRPRPRPHGFPRP | 0.114 |
| RRIRPRPPRLPRPRPRPQGCPRP | -0.0849 |
| RRIRWRPPRLPRPRPRPYHSPRP | -0.215 |
| RRIRLRPPRLPRPRPRPYIHPRP | -1.05 |
| RRIRKRPPRLPRPRPRPQDFPRP | 0.00806 |
| RRIRHRPPRLPRPRPRPIHDPRP | -1.81 |
| RRIRARPPRLPRPRPRPEDEPRP | 0.182 |
| RRIRPRPPRLPRPRPRPFQKPRP | -0.163 |
| RRIRPRPPRLPRPRPRPGSHPRP | 0.142 |
| RRIRRRPPRLPRPRPRPDYDPRP | -0.0449 |
| RRIRQRPPRLPRPRPRPQWAPRP | 0.142 |
| RRIRIRPPRLPRPRPRPHHHPRP | -0.719 |
| RRIRVRPPRLPRPRPRPEVTPRP | -0.0717 |
| RRIRCRPPRLPRPRPRPLRCPRP | 0.198 |
| RRIRWRPPRLPRPRPRPYFQPRP | 1.83 |
| RRIRHRPPRLPRPRPRPGIIPRP | -0.0698 |
| RRIRGRPPRLPRPRPRPLNSPRP | 0.181 |
| RRIRVRPPRLPRPRPRPAFNPRP | -0.416 |
| RRIRLRPPRLPRPRPRPYQAPRP | 0.0204 |
| RRIRSRPPRLPRPRPRPFTEPRP | -0.0824 |
| RRIRERPPRLPRPRPRPALTPRP | 0.131 |
| RRIRCRPPRLPRPRPRPRKQPRP | 0.284 |
| RRIRHRPPRLPRPRPRPPSCPRP | 0.604 |
| RRIRKRPPRLPRPRPRPRKPPRP | 1.65 |

| Sequence | shrunken log2 fold change |
| --- | --- |
| RRIRLRPPRLPRPRPRPWPTPRP | 0.0538 |
| RRIRSRPPRLPRPRPRPDSDPRP | 0.051 |
| RRIRWRPPRLPRPRPRPNEPPRP | -0.000964 |
| RRIRERPPRLPRPRPRPGQIPRP | 0.0685 |
| RRIRIRPPRLPRPRPRPKNMPRP | -0.577 |
| RRIRQRPPRLPRPRPRPMEIPRP | -0.0109 |
| RRIRDRPPRLPRPRPRPDCTPRP | 0.185 |
| RRIRIRPPRLPRPRPRPLALPRP | -0.138 |
| RRIRPRPPRLPRPRPRPQYGPRP | -0.725 |
| RRIRARPPRLPRPRPRPRRVPRP | 1.36 |
| RRIRHRPPRLPRPRPRPESNPRP | -0.131 |
| RRIRPRPPRLPRPRPRPPMRPRP | 0.833 |
| RRIRPRPPRLPRPRPRPYTWPRP | -0.446 |
| RRIRKRPPRLPRPRPRPVMGPRP | 0.155 |
| RRIRDRPPRLPRPRPRPLGTPRP | 0.706 |
| RRIRMRPPRLPRPRPRPDDYPRP | 0.766 |
| RRIRIRPPRLPRPRPRPDIWPRP | -0.324 |
| RRIRIRPPRLPRPRPRPSMGPRP | -0.222 |
| RRIRTRPPRLPRPRPRPCRWPRP | -0.00822 |
| RRIRPRPPRLPRPRPRPIKDPRP | -0.763 |
| RRIRWRPPRLPRPRPRPYEQPRP | -0.398 |
| RRIRNRPPRLPRPRPRPPGPPRP | 0.419 |
| RRIRCRPPRLPRPRPRPVSNPRP | 0.0201 |
| RRIRSRPPRLPRPRPRPVQTPRP | 0.826 |
| RRIRWRPPRLPRPRPRPKLDPRP | 0.206 |

| Sequence | shrunken log2 fold change |
| --- | --- |
| RRIRLRPPRLPRPRPRPMDWPRP | -0.0759 |
| RRIRYRPPRLPRPRPRPLPFPRP | -0.78 |
| RRIRHRPPRLPRPRPRPKSWPRP | 0.26 |
| RRIRHRPPRLPRPRPRPGRTPRP | 0.208 |
| RRIRRRPPRLPRPRPRPIRTPRP | 0.4 |
| RRIRARPPRLPRPRPRPYSYPRP | -0.292 |
| RRIRNRPPRLPRPRPRPAGAPRP | 0.665 |
| RRIRIRPPRLPRPRPRPRHMPRP | -0.12 |
| RRIRFRPPRLPRPRPRPYDAPRP | -1.06 |
| RRIRYRPPRLPRPRPRPQMMPRP | -0.536 |
| RRIRGRPPRLPRPRPRPRPFPRP | 0.889 |
| RRIRIRPPRLPRPRPRPDQIPRP | -0.0795 |
| RRIRERPPRLPRPRPRPHHRPRP | -0.145 |
| RRIRQRPPRLPRPRPRPSDHPRP | -0.298 |
| RRIRPRPPRLPRPRPRPEWLPRP | 0.404 |
| RRIRDRPPRLPRPRPRPVVMPRP | 0.194 |
| RRIRCRPPRLPRPRPRPMFLPRP | -0.847 |
| RRIRYRPPRLPRPRPRPIGKPRP | 0.0104 |
| RRIRVRPPRLPRPRPRPDFCPRP | 0.183 |
| RRIRTRPPRLPRPRPRPINNPRP | -0.793 |
| RRIRNRPPRLPRPRPRPSECPRP | -0.272 |
| RRIRHRPPRLPRPRPRPVMEPRP | 0.105 |
| RRIRIRPPRLPRPRPRPDLRPRP | -0.0147 |
| RRIRDRPPRLPRPRPRPICAPRP | 0.172 |
| RRIRNRPPRLPRPRPRPMLKPRP | -0.0393 |

| Sequence | shrunken log2 fold change |
| --- | --- |
| RRIRKRPPRLPRPRPRPIDLPRP | -0.0822 |
| RRIRVRPPRLPRPRPRPVNIPRP | -0.584 |
| RRIRQRPPRLPRPRPRPSSKPRP | -0.623 |
| RRIRTRPPRLPRPRPRPIVFPRP | -0.218 |
| RRIRYRPPRLPRPRPRPWPKPRP | 0.203 |
| RRIRRRPPRLPRPRPRPEYDPRP | 0.109 |
| RRIRCRPPRLPRPRPRPWFCPRP | -0.177 |
| RRIRRRPPRLPRPRPRPRHRPRP | 0.178 |
| RRIRMRPPRLPRPRPRPIWCPRP | -0.234 |
| RRIRYRPPRLPRPRPRPLNPPRP | 0.0535 |
| RRIRDRPPRLPRPRPRPQWPPRP | -0.0971 |
| RRIRLRPPRLPRPRPRPLKAPRP | -0.153 |
| RRIRDRPPRLPRPRPRPNCQPRP | 0.156 |
| RRIRRRPPRLPRPRPRPHIIPRP | -0.259 |
| RRIRIRPPRLPRPRPRPGDWPRP | 0.585 |
| RRIRPRPPRLPRPRPRPSRYPRP | -0.163 |
| RRIRTRPPRLPRPRPRPKWMPRP | 0.00414 |
| RRIRVRPPRLPRPRPRPQDFPRP | 0.00129 |
| RRIRYRPPRLPRPRPRPLIGPRP | -0.478 |
| RRIRFRPPRLPRPRPRPPQQPRP | -0.0751 |
| RRIRFRPPRLPRPRPRPASRPRP | 0.128 |
| RRIRMRPPRLPRPRPRPVQVPRP | -0.00884 |
| RRIRMRPPRLPRPRPRPLTAPRP | 1.15 |
| RRIRKRPPRLPRPRPRPHVWPRP | 0.82 |
| RRIRGRPPRLPRPRPRPLASPRP | 0.894 |

Reference: the supplement of paper PMC9112550, “Optimization of the antimicrobial peptide Bac7 by deep mutational scanning” (BMC Biology, 2022)
